Results reported in article PMC10895266, “The structure of the Caenorhabditis elegans TMC-2 complex suggests roles of lipid-mediated subunit contacts in mechanosensory transduction” (Proceedings of the National Academy of Sciences of the …, 2024).

Biological target: the molecule itself
Assay: cryo-EM structure; single-particle cryo-EM of the native TMC-2 complex isolated from worms (anti-FLAG affinity, SEC, GDN, 1 mM CaCl2); cis-dimeric particles selected

B1: TMC-2 (transmembrane channel-like protein 2), native, tagged with mVenus-3xFLAG at the endogenous locus (natural protein, C. elegans, UniProt Q11069 1-1203, looked up)
chain: MPKSGAHQPLVRHDTDDGGETGQSVKSLADVSEEEIDSRMSRRSSVIADLLSLFRRSSSVLVRPHTRLGNPNFDDDDDEFDEEDDKEASKDRILKKIQQKKEIIQKLRGQPWYMKRKRRTLKVAQKHLQQQEAKVSKARLYKAEAGRRLTQASRWLDNLKIYLIPWEAKIRKIESHFGSVVSSYFTFHRWVLGVNITITFIMCMFVVIPEWLADSRTQFGDDRYNKTKAIKVMPPAVRARADELSTVWDFGGYFQYSLLFYGFYSKETFFGETIKYRVPVAYFFCNIFILGFSLFIILRKMAANNRRGTLSSGKTQQYLFNWKAFTGWDYTIGNPETAGNVYMANVIKFREAINDDKQKPSDKHPWIRFVARVLTNLFICAMYVFSIWAIMQCGTLKGEHFFAQNATAITISLITLVFPNIFDLLGKIEKLHPRNALRFQLGRVLVLYILNYYTLIYSLMLQLEHLQKEKNASDNPISALGHPGDAIGRTIRETVLPRYPVDNNPHTYYSYAPVTTTPIPATSSWTTVLPDFGPFGVYNPKASVTKDDTVFSSPVVETHMFGPNSDWNETTVNAASPTGATTRASLRMSQGGLCWETIIGQEITKLVTMDLYMTVASIFLIDFLRGLACRYLNLYWPWDLERTFPEYGEFKVAENVLHLVNNQGMIWLGLFFVPLLPMLNNIKLIILMYIRGWAAMTCNVPASQIFRASRSSNFFFALLILFLFLCTLPVGFVIASKTPSKSCGPFGNQSFFYSVITDVLHENLDKTLVNGIKYSLSPGIIIPVLVLLSLVIYFLIAMVTGLSQANQDLSFQLMVERTEEKKKIFELAGGKKKKSKDNTFGKQKPKQLLPPPTKGVSSDDDSQHNRSTAKSVSGRQFVPSLGSVSEVDHSTGEEQSSDSESTTSSLPPKLSLRQRFLVCIGWADPNKYGRHDDIEMEEGGGRLRELSTGSETDSDDEDSEKSNRDMSYRTAIQSFDQNSQSASASSSKSTTTAPSNSEMRIEITENPLHTYITPLRIEKKSSASSSSSSHQPSSSIEKQAARRLLQPISTTHNIRYGVATVENSSQDPTRPPSTDDSLGDPALHEPLWANLNPHSSYTSAMMSPIMNEVMSNDETTDDEKGRLIPDRPPIPHSPRELKRLKREKDQQSESGSKPSTPRPPRFRISMSPPRKPPSEKNDSDSSNRKYEMRVEKSPKKPKKSDND
modifications: N-glycans at N225 and N748
notes: TMC-2, C. elegans, endogenous tmc-2 gene (Wormbase B0416.1a); tag inserted prior to the stop codon; residues M1 to D1203 named; modelled 89-471, 583-813; A 3C (PreScission) site lies between mVenus and 3xFLAG; The complex was captured on anti-FLAG resin by the 3xFLAG tag, which was cut off on elution with 3C protease before SEC, mass spectrometry and cryo-EM; also called TMC-2-mVenus; …
  stoichiometry N: 2
